# In the MegaScale stability set (Tsuboyama et al. 2023):
# B1: 5KPH (parent)
# chain: EEKRQVKQVAKEKLLEQSPNSKVQVRRVQKQGNTIRVELELRTNGKKENYTVEVERQGNTWTVKRITRT
# Variants of: B1
# Test: folding stability dG (cDNA display proteolysis); higher = more stable
# Conditions: PBS, room temperature
row,Variant,folding stability dG [kcal/mol]
1,EEKRQVKQVAKEKLLEQSPNSKVQVRRVQGQGNTIRVELELRTNGKKENYTVEVERQGNTWTVKRITRT [K30G],4.08
2,EEKRQVKQVAKEKLLEQSPNSKVQVRRVQPQGNTIRVELELRTNGKKENYTVEVERQGNTWTVKRITRT [K30P],3.79
3,EEKRQVKQVAKEKLLEQSPNSKVQVRRVQEQGNTIRVELELRTNGKKENYTVEVERQGNTWTVKRITRT [K30E],3.78
4,SEKRQVKQVAKEKLLEQSPNSKVQVRRVQKQGNTIRVELELRTNGKKENYTVEVERQGNTWTVKRITRT [E1S],3.56
5,LEKRQVKQVAKEKLLEQSPNSKVQVRRVQKQGNTIRVELELRTNGKKENYTVEVERQGNTWTVKRITRT [E1L],3.06
6,EEKRQVKQVAKEKLLEQSPNSKVQVRRVQKQGNTIRVELELRTNGKKENYTVEVERQGNTGTVKRITRT [W61G],1.39
7,EEKRQVKQVAKEKLLEQSPNSKVQVRRVQKQGNTIRVELELRTNGKKENYTVEVERQGNTDTVKRITRT [W61D],1.07
8,EEKRQVKQVAKEKLLEQSPNSKVQVRRVQKQGNTIRVELELRTNGKKENYTVEVERQGNTWTVKPITRT [R65P],1.4
9,EEKRQVKQVAKEKLLEQSPNSKVQVRRVQKQGNTIRVELELRTNGKKENYTVEVERQGNTWTVKFITRT [R65F],3.53
10,EEKRQVKQVAKEKLLEQSPNSKVQVRRVQKQGNTIRVELELRTNGKKENYTVEVERQGNTWTVKAITRT [R65A],4.27
11,EEKRQVKQVAKEKLLEQSPNTKVQVRRVQKQGNTIRVELELRTNGKKENYTVEVERQGNTWTVKRITRT [S21T],2.81
12,EEKRQVKQVAKEKLLEQSPNSKVQVRRVQKQGNTIRVELELRTNGKKENPTVEVERQGNTWTVKRITRT [Y50P],-0.674
13,ECKRQVKQVAKEKLLEQSPNSKVQVRRVQKQGNTIRVELELRTNGKKENYTVEVERQGNTWTVKRITRT [E2C],3.69
14,EMKRQVKQVAKEKLLEQSPNSKVQVRRVQKQGNTIRVELELRTNGKKENYTVEVERQGNTWTVKRITRT [E2M],3.58
15,ERKRQVKQVAKEKLLEQSPNSKVQVRRVQKQGNTIRVELELRTNGKKENYTVEVERQGNTWTVKRITRT [E2R],3.19
16,EEKRQVKQVAKEKLLDQSPNSKVQVRRVQKQGNTIRVELELRTNGKKENYTVEVERQGNTWTVKRITRT [E16D],3.16
17,EEKRQVKQVAKEKLLEQSPNSKVQVRRVQKQGNTIRTELELRTNGKKENYTVEVERQGNTWTVKRITRT [V37T],1.28
18,EEKRQVKQVAKEKLLEQSPNSKVQVRRVQKQGNTIRCELELRTNGKKENYTVEVERQGNTWTVKRITRT [V37C],2.65
19,EEKRQVKQVAKEKLLEQSPNSMVQVRRVQKQGNTIRVELELRTNGKKENYTVEVERQGNTWTVKRITRT [K22M],3.85
20,EEKRQVKQVAKEKLLEQSPNSNVQVRRVQKQGNTIRVELELRTNGKKENYTVEVERQGNTWTVKRITRT [K22N],3.62
21,EEKRQVKQVAKEKLLEQSPNSKVQVRRVQKQGNTIRVYLELRTNGKKENYTVEVERQGNTWTVKRITRT [E38Y],4.76
22,EEKRQVKQVAKEKLLEQSPNSKVQVRRVQKQGNTIRVALELRTNGKKENYTVEVERQGNTWTVKRITRT [E38A],3.62
23,EEKRQVKQVAKEKLLEQSPNSKVQVRRVQKQGNTIRVTLELRTNGKKENYTVEVERQGNTWTVKRITRT [E38T],3.99
24,EEKRQVKMVAKEKLLEQSPNSKVQVRRVQKQGNTIRVELELRTNGKKENYTVEVERQGNTWTVKRITRT [Q8M],3.59
25,EEKRQVKHVAKEKLLEQSPNSKVQVRRVQKQGNTIRVELELRTNGKKENYTVEVERQGNTWTVKRITRT [Q8H],3.62
26,EEKRQVKQVAKEKLLEQSPNSKVQVRRVQKQGNTIRVELELRTNGKMENYTVEVERQGNTWTVKRITRT [K47M],3.77

row,Variant,folding stability dG [kcal/mol]
1,EEKRQVKQVAKEKLLEQSPNSKVQVRRVQKQGNTIRVELELRTNGKPENYTVEVERQGNTWTVKRITRT [K47P],3.31
2,EEKRQVKQVAKRKLLEQSPNSKVQVRRVQKQGNTIRVELELRTNGKKENYTVEVERQGNTWTVKRITRT [E12R],3.89
3,EEKRQVKQVAKPKLLEQSPNSKVQVRRVQKQGNTIRVELELRTNGKKENYTVEVERQGNTWTVKRITRT [E12P],1.8
4,EEKRQVKQVAKEKLLEQSPNSKVQVRRVQKQGNTIRVELELRTNGNKENYTVEVERQGNTWTVKRITRT [K46N],3.81
5,EEKRQVKQVAKEKLLEQSPNSKVQVRRVQKQGNTIRVELELRTNGWKENYTVEVERQGNTWTVKRITRT [K46W],3.7
6,EEKRQVKQVAKEKLLEQSTNSKVQVRRVQKQGNTIRVELELRTNGKKENYTVEVERQGNTWTVKRITRT [P19T],2.69
7,EEKNQVKQVAKEKLLEQSPNSKVQVRRVQKQGNTIRVELELRTNGKKENYTVEVERQGNTWTVKRITRT [R4N],3.72
8,EEKRQVKQVAKEKLLEQSPNSKVQVRRVQKQGNTIRVETELRTNGKKENYTVEVERQGNTWTVKRITRT [L39T],2.59
9,EEKRQVKQVAKEKLLEQSPNSKVQVRRVQKQGNTIRVEWELRTNGKKENYTVEVERQGNTWTVKRITRT [L39W],2.03
10,EEKRQFKQVAKEKLLEQSPNSKVQVRRVQKQGNTIRVELELRTNGKKENYTVEVERQGNTWTVKRITRT [V6F],2.99
11,EEKRQTKQVAKEKLLEQSPNSKVQVRRVQKQGNTIRVELELRTNGKKENYTVEVERQGNTWTVKRITRT [V6T],2.66
12,EEKRQVKQVAKEKLLEQSPNSKVQVRRVQKQSNTIRVELELRTNGKKENYTVEVERQGNTWTVKRITRT [G32S],2.97
13,EEKRQVKQVAKEKLLEQSPNSKVQVNRVQKQGNTIRVELELRTNGKKENYTVEVERQGNTWTVKRITRT [R26N],3.51
14,EEKRQVKQVAKEKLLEQSPNSKVQVIRVQKQGNTIRVELELRTNGKKENYTVEVERQGNTWTVKRITRT [R26I],4.25
15,EEKRQVKQVAKEKLLEQSPNSKVQVRRVQKQGNTIRVELELRTNGKKDNYTVEVERQGNTWTVKRITRT [E48D],3.35
16,EEKRQVKQVAKEKLLEQSPNSKVQVRRVQKQGNTIRVELELRTNGKKENYTIEVERQGNTWTVKRITRT [V52I],3.65
17,EEKRQVKQVAKEKLLEQSPNSKVQVRRVQKQGNTIRVELELRTNGKKENYTLEVERQGNTWTVKRITRT [V52L],3.48
18,EEKRQVKQVAKEKSLEQSPNSKVQVRRVQKQGNTIRVELELRTNGKKENYTVEVERQGNTWTVKRITRT [L14S],2.17
19,EEKRQVKQVAKEKRLEQSPNSKVQVRRVQKQGNTIRVELELRTNGKKENYTVEVERQGNTWTVKRITRT [L14R],2.08
20,EEKRQVKQVAKEKLLEQSPNSKVQVRRVQKQGNTIRVELELRTNGKKENYTVHVERQGNTWTVKRITRT [E53H],3.47
21,EEKRQVKQVAKEKLLEQSPNSKVQVRRVQKQGNTIRVELELRTNGKKENYTVRVERQGNTWTVKRITRT [E53R],2.69
22,EEKRQVKQVATEKLLEQSPNSKVQVRRVQKQGNTIRVELELRTNGKKENYTVEVERQGNTWTVKRITRT [K11T],3.86
23,EEKRQVKQVAKEKLLEQSPNSKVQVRRVQKQGNTIMVELELRTNGKKENYTVEVERQGNTWTVKRITRT [R36M],4.23
24,EEKRQVKQVAKEKLLEQSPNSKVQVRRVQKQGNTIRVELELRTNGKKENYTVEFERQGNTWTVKRITRT [V54F],4.06
25,EEKRTVKQVAKEKLLEQSPNSKVQVRRVQKQGNTIRVELELRTNGKKENYTVEVERQGNTWTVKRITRT [Q5T],3.93
26,EEKRQVKQVAKEKLLEQSPNSKVQVRRVQKQGNTIRVELELSTNGKKENYTVEVERQGNTWTVKRITRT [R42S],3.91

row,Variant,folding stability dG [kcal/mol]
1,EEKRQVKQVAKEKLLEQSPNSKVQVRRVQKQGNTIRVELELHTNGKKENYTVEVERQGNTWTVKRITRT [R42H],3.91
2,EEKRQVKQVAKEKLLEQSPNSKVQVRRVQKQGNTIRVELELATNGKKENYTVEVERQGNTWTVKRITRT [R42A],3.59
3,EEKRQVKQVAKEKLLEQSPNSKVQVRRVQKQGNTIRVELELTTNGKKENYTVEVERQGNTWTVKRITRT [R42T],4.4
4,EEKRQVKQVAKEKLLEQSPNSKVQVRRVQKQGNTIRVELELRTNGKKENYTVEVLRQGNTWTVKRITRT [E55L],3.54
5,EERRQVKQVAKEKLLEQSPNSKVQVRRVQKQGNTIRVELELRTNGKKENYTVEVERQGNTWTVKRITRT [K3R],4.07
6,EEYRQVKQVAKEKLLEQSPNSKVQVRRVQKQGNTIRVELELRTNGKKENYTVEVERQGNTWTVKRITRT [K3Y],4.74
7,EEKRQVKQVAKEKLLEQSPNSKVQVRRVQKQGNTIRVELELRTNGKKENYTVEVEKQGNTWTVKRITRT [R56K],4.11
8,EEKRQVKQVAKEKLLEQSPNSKVQVRRVQKQGNTIRVELELRTNGKKENYTVEVEDQGNTWTVKRITRT [R56D],2.42
9,EEKRQVKQVAKEKLLEQSPNSKVQVRRVQKQGNTIRVELELRTNGKKENYTVEVEPQGNTWTVKRITRT [R56P],2.93
10,EEKRQVKQVAKEKLLEQSPNSKVQVRRVQKQGNNIRVELELRTNGKKENYTVEVERQGNTWTVKRITRT [T34N],3.44
11,EEKRQVKQVAKEKLLEQSPNSKVPVRRVQKQGNTIRVELELRTNGKKENYTVEVERQGNTWTVKRITRT [Q24P],1.25
12,EEKRQVKQVAKEKLLEQSPNSKVQVRRVQKQGWTIRVELELRTNGKKENYTVEVERQGNTWTVKRITRT [N33W],3.36
13,EEKRQVKQVAKEKLLEQSPNSKVQVRRVQKQGSTIRVELELRTNGKKENYTVEVERQGNTWTVKRITRT [N33S],3.88
14,EEKRQVKQVAKEKLLEQSPNSKVQVRRVQKQGVTIRVELELRTNGKKENYTVEVERQGNTWTVKRITRT [N33V],3.4
15,EEKRQVKQVAKEKLYEQSPNSKVQVRRVQKQGNTIRVELELRTNGKKENYTVEVERQGNTWTVKRITRT [L15Y],3.14
16,EEKRQVKQVAKEKLKEQSPNSKVQVRRVQKQGNTIRVELELRTNGKKENYTVEVERQGNTWTVKRITRT [L15K],3.36
17,EEKRQVKQVAKEKLLELSPNSKVQVRRVQKQGNTIRVELELRTNGKKENYTVEVERQGNTWTVKRITRT [Q17L],4.54
18,EEKRQVKQVAKEKLLEFSPNSKVQVRRVQKQGNTIRVELELRTNGKKENYTVEVERQGNTWTVKRITRT [Q17F],4.12
19,EEKRQVKQVAKEKLLECSPNSKVQVRRVQKQGNTIRVELELRTNGKKENYTVEVERQGNTWTVKRITRT [Q17C],3.75
20,EEKRQVKQIAKEKLLEQSPNSKVQVRRVQKQGNTIRVELELRTNGKKENYTVEVERQGNTWTVKRITRT [V9I],4.22
21,EEKRQVKQDAKEKLLEQSPNSKVQVRRVQKQGNTIRVELELRTNGKKENYTVEVERQGNTWTVKRITRT [V9D],1.82
22,EEKRQVKQVAKEKLLEQSPNSKVQVRRVQKQGNTIRVELELRTNGKKENYTVEVERQGNFWTVKRITRT [T60F],3.96
23,EEKRQVKQVAKEKLLEQSPTSKVQVRRVQKQGNTIRVELELRTNGKKENYTVEVERQGNTWTVKRITRT [N20T],3.6
24,EEKRQVKQVAKEKLLEQSPHSKVQVRRVQKQGNTIRVELELRTNGKKENYTVEVERQGNTWTVKRITRT [N20H],3.64
25,EEKRQVKQVAKEKLLEQSPNSKVQVRRVQKQGNTIRVELELRTNGKKENYTVEVERQGNTWTVKRIIRT [T67I],4.09
26,EEKRQVKQVAKEKLLEQSPNSKVQVRRQQKQGNTIRVELELRTNGKKENYTVEVERQGNTWTVKRITRT [V28Q],2.53
